± gives the uncertainty stated by the source.
Test: self-splicing fitness, log relative to wild type (ln ratio); higher = more splicing; Tetrahymena group I intron in knt gene, E. coli kanamycin selection, DiMSum; sequences stand for … in CUCUCU…GGAGGGAAAAGUUAUCAGGCAUGCACCUGGUAGCUAGUCUUUAAACCAAUAGAUUGCAUCGGUUUAAAAGGCAAGACCGUCAAAUUGCGGGAAAGGGGUCAACAGCCGUUCAGUACCAAGUCUCAGGGGAAACUUUGAGAUGGCCUUGCAAAGGGUAUGGUAAUAAGCUGACGGACAUGGUCCUAACCACGCAGCCAAGUCCUAAGUCAACAGAUCUUCUGUUGAUAUGGAUGCAGUUCACAGACUAAAUGUCGGUCGGGGAAGAUGUAUUCUUCUCAUAAGAUAUAGUCGGACCUCUCCUUAAUGGGAGCUAGCGGAUGAAGUGAUGCAACACUGGAGCCGCUGGGAACUAAUUUGUAUGCGAAAGUAUAUUGAUUAGUUUUGGAGUACUCGUGGUCG
Method in brief: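 Six replicate transformations of E. coli BL21(DE3) with a pET-22b(+) library were grown overnight at 37°C or 30°C. The library randomised all eight P1ex-region intron nucleotides, the intron lying in the knt kanamycin-resistance gene, and plates were LB agar with or without 25 μg/mL kanamycin plus 100 μg/mL carbenicillin, 50 μM IPTG and 0.2% rhamnose. Pooled colonies were amplicon-sequenced on an Illumina HiSeq 2500, and fitness is the DiMSum error-weighted combination of wild-type-normalised replicate fold changes, kanamycin versus none.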

Sequence | self-splicing fitness (ln) (30 °C) | self-splicing fitness (ln) (37 °C)
GCCAAGCAAUAUUACGCGCU | -1.33 ± 0.063 | -0.352 ± 0.082
GCCAAGCAAUAUUACGCGGG | -3.54 ± 0.23 | -2.37 ± 0.18
GCCAAGCAAUAUUACGCUAA | -0.682 ± 0.099 | -1.37 ± 0.13
GCCAAGCAAUAUUACGCUCU | -0.234 ± 0.1 | -0.0648 ± 0.12
GCCAAGCAAUAUUACGUAAC | -1.35 ± 0.087 | -0.157 ± 0.11
GCCAAGCAAUAUUACGUUUA | -2.97 ± 0.19 | -2.28 ± 0.18
GCCAAGCAAUAUUACGUUUC | -2.86 ± 0.18 | -0.805 ± 0.12
GCCCAGCAAUAUUACGACAC | -1.64 ± 0.081 | -0.294 ± 0.11
GCCCAGCAAUAUUACGACAU | -1.515 ± 0.012 | -0.82 ± 0.032
GCCCAGCAAUAUUACGCAUU | -0.902 ± 0.05 | -0.248 ± 0.063
GCCCAGCAAUAUUACGCCAA | -3.11 ± 0.14 | -1.71 ± 0.1
GCCCAGCAAUAUUACGCCAU | -2.56 ± 0.22 | -3.35 ± 0.37
GCCCAGCAAUAUUACGCCUC | -0.831 ± 0.075 | 0.0191 ± 0.11
GCCCAGCAAUAUUACGCGCA | -1.44 ± 0.11 | -0.0956 ± 0.1
GCCCAGCAAUAUUACGCGCC | -4.19 ± 0.42 | -0.613 ± 0.19
GCCCAGCAAUAUUACGCUGU | -0.516 ± 0.063 | -0.482 ± 0.092
GCCCAGCAAUAUUACGCUUG | -3.45 ± 0.2 | -1.79 ± 0.17
GCCCAGCAAUAUUACGGAAA | -0.768 ± 0.075 | -0.234 ± 0.084
GCCCAGCAAUAUUACGGAUC | -0.448 ± 0.044 | -0.289 ± 0.056
GCCCAGCAAUAUUACGGCGC | -3.02 ± 0.17 | -1.87 ± 0.16
GCCCAGCAAUAUUACGGCUA | -1.1 ± 0.095 | -0.549 ± 0.1
GCCCAGCAAUAUUACGGCUC | -0.866 ± 0.11 | -0.219 ± 0.14
GCCCAGCAAUAUUACGGGCG | -2.53 ± 0.091 | -1.7 ± 0.099
GCCCAGCAAUAUUACGGUUG | -2.99 ± 0.12 | -1.95 ± 0.11
GCCCAGCAAUAUUACGUCCG | -3.33 ± 0.26 | -2.83 ± 0.21

Sequence | self-splicing fitness (ln) (30 °C) | self-splicing fitness (ln) (37 °C)
GCCCAGCAAUAUUACGUUAG | -3.81 ± 0.14 | -2.26 ± 0.16
GCCGAGCAAUAUUACGACAU | -2.286 ± 0.016 | -1.27 ± 0.034
GCCGAGCAAUAUUACGACGA | -1.34 ± 0.11 | -0.792 ± 0.098
GCCGAGCAAUAUUACGACGC | -2.86 ± 0.23 | -1.08 ± 0.21
GCCGAGCAAUAUUACGACGG | -3.78 ± 0.23 | -2.76 ± 0.28
GCCGAGCAAUAUUACGACUC | -3.37 ± 0.48 | 0.198 ± 0.28
GCCGAGCAAUAUUACGAGCG | 0.333 ± 0.15 | -0.618 ± 0.19
GCCGAGCAAUAUUACGAGUA | -2.36 ± 0.11 | -1.43 ± 0.086
GCCGAGCAAUAUUACGAGUU | -1.62 ± 0.12 | -0.709 ± 0.15
GCCGAGCAAUAUUACGCACA | -1.22 ± 0.2 | -1.51 ± 0.19
GCCGAGCAAUAUUACGCGAG | -3.29 ± 0.32 | -2.03 ± 0.32
GCCGAGCAAUAUUACGCUAC | -3.91 ± 0.31 | -4.08 ± 0.47
GCCGAGCAAUAUUACGCUAU | -2.6 ± 0.29 | -1.75 ± 0.15
GCCGAGCAAUAUUACGCUGU | -2.17 ± 0.14 | -1.57 ± 0.14
GCCGAGCAAUAUUACGGAAC | -1.82 ± 0.12 | -0.538 ± 0.12
GCCGAGCAAUAUUACGGAGA | -1.55 ± 0.093 | -1.15 ± 0.13
GCCGAGCAAUAUUACGGCAC | -2.24 ± 0.19 | -1.71 ± 0.23
GCCGAGCAAUAUUACGGCCG | – | -1.7 ± 0.47
GCCGAGCAAUAUUACGGGGA | -1.36 ± 0.069 | -0.555 ± 0.069
GCCGAGCAAUAUUACGGGUG | -0.694 ± 0.067 | -0.014 ± 0.075
GCCGAGCAAUAUUACGGUAC | -2.88 ± 0.15 | -0.908 ± 0.24
GCCGAGCAAUAUUACGGUAU | -1.89 ± 0.13 | -0.878 ± 0.12
GCCGAGCAAUAUUACGGUCA | -1.63 ± 0.098 | -0.977 ± 0.09
GCCGAGCAAUAUUACGGUUG | -1.38 ± 0.14 | -0.555 ± 0.19
GCCGAGCAAUAUUACGUAAG | -2.26 ± 0.13 | -1.09 ± 0.12

Sequence | self-splicing fitness (ln) (30 °C) | self-splicing fitness (ln) (37 °C)
GCCGAGCAAUAUUACGUCAU | -3.5 ± 0.25 | -1.31 ± 0.17
GCCGAGCAAUAUUACGUGCC | -3.35 ± 0.15 | -2.52 ± 0.2
GCCGAGCAAUAUUACGUGUG | -1.43 ± 0.07 | -0.815 ± 0.081
GCCGAGCAAUAUUACGUGUU | -2.22 ± 0.088 | -1.66 ± 0.1
GCCGAGCAAUAUUACGUUUG | -3.75 ± 0.2 | -1.54 ± 0.19
GCCGAGCAAUAUUACGUUUU | -3.18 ± 0.18 | -1.75 ± 0.14
GCCUAGCAAUAUUACGAACG | -2.19 ± 0.19 | -0.701 ± 0.27
GCCUAGCAAUAUUACGAAGC | -2.24 ± 0.13 | -2.15 ± 0.19
GCCUAGCAAUAUUACGACGU | -0.19 ± 0.058 | 0.0659 ± 0.07
GCCUAGCAAUAUUACGAGGU | -3.07 ± 0.18 | -2.9 ± 0.23
GCCUAGCAAUAUUACGAGUC | -0.636 ± 0.14 | -0.0225 ± 0.18
GCCUAGCAAUAUUACGCCAG | -2.75 ± 0.27 | -2.67 ± 0.48
GCCUAGCAAUAUUACGCCUU | -1.15 ± 0.086 | -0.212 ± 0.1
GCCUAGCAAUAUUACGCUUC | -2.42 ± 0.16 | -0.334 ± 0.13
GCCUAGCAAUAUUACGCUUG | -2.37 ± 0.17 | -1.96 ± 0.26
GCCUAGCAAUAUUACGGGAU | -0.903 ± 0.11 | 0.0611 ± 0.13
GCCUAGCAAUAUUACGGUGC | -2.59 ± 0.15 | -1.48 ± 0.14
GCCUAGCAAUAUUACGGUUC | -1.02 ± 0.07 | -1.45 ± 0.11
GCCUAGCAAUAUUACGGUUG | -3.8 ± 0.14 | -1.62 ± 0.11
GCCUAGCAAUAUUACGUGAG | -1.21 ± 0.085 | -0.757 ± 0.091
GCCUAGCAAUAUUACGUUAA | -1.86 ± 0.13 | -1.28 ± 0.13
GCCUAGCAAUAUUACGUUCA | -1.37 ± 0.16 | -1.12 ± 0.17
GCCUAGCAAUAUUACGUUCG | -2.74 ± 0.15 | -2.09 ± 0.19
GCCUAGCAAUAUUACGUUGA | -1.54 ± 0.11 | -0.577 ± 0.1
GCCUAGCAAUAUUACGUUGC | -1.05 ± 0.076 | -0.0792 ± 0.081

Source: the supplement of paper PMC7877785
